Source: patent publication US20220241335A1 (H LEE MOFFITT CANCER CENTER AND RESEARCH INST5ITUTE, published 2022)

T1: hNotch 2 (EGF6-EGF13) (human, UniProt Q04721 221-530, biotinylated (site not stated))
T1 construct: domain: EGF6-EGF13; Immobilised on the SPR chip through biotin; also called biotinylated Notch2
T1 sequence (looked up): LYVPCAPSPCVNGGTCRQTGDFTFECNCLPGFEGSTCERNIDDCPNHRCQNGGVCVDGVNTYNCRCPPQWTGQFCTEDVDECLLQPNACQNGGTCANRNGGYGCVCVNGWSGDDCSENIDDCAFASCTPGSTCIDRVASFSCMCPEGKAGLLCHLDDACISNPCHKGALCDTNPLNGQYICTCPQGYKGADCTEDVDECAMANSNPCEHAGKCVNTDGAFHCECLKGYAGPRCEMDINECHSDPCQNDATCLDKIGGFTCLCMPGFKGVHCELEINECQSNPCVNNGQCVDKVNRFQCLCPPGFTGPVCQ

T2: hNotch 3 (EGF5-EGF12) (human, UniProt Q9UM47 197-505, biotinylated (site not stated))
T2 construct: domain: EGF5-EGF12; Immobilised on the SPR chip through biotin; also called biotinylated Notch3
T2 sequence (looked up): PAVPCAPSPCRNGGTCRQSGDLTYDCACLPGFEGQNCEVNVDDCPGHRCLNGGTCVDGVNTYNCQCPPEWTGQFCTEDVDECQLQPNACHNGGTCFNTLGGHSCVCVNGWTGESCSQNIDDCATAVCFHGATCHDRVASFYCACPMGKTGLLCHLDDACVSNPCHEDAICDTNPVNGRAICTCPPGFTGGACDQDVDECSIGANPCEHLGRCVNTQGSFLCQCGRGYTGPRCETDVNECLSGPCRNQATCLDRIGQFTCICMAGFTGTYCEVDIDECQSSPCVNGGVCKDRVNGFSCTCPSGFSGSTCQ


Columns and labels:
[1] = target: Notch1 (as used for the SPR of Example 1); test: SPR
hNotch 1 (EGF6-EGF13) [2] = target: T3, hNotch 1 (EGF6-EGF13) (human, UniProt P46531 218-526, biotinylated (site not stated)); test: SPR, biotinylated Notch on chip, 1:1 equilibrium binding model
T3 construct: domain: EGF6-EGF13; Immobilised on the SPR chip through biotin; also called biotinylated Notch1
Protocol: (§1) 100. Next, the binding affinity of each individual variant was determined by surface plasmon resonance. Biotinylated Notch1, Notch2, or Notch3 proteins containing the domains indicated above were immobilized on a surface plasmon resonance sensor chip. Increasing concentrations of WT DLL4 or DLL4.v3 were then flowed over the chip and dissociation constants were determined by fitting the data to a 1:1 equilibrium binding model. As shown in FIG. 4 and Table 3, the binding affinity of DLL4.v3 was at least 3 orders of magnitude stronger than wildtype.

hNotch 2 (EGF6-EGF13) [3] = target: T1, hNotch 2 (EGF6-EGF13); test: as above
Protocol: as §1

hNotch 3 (EGF5-EGF12) [4] = target: T2, hNotch 3 (EGF5-EGF12); test: as above
Protocol: as §1

hNotch 1 (EGF6-EGF13) [5] = target: T3, hNotch 1 (EGF6-EGF13); test: SPR
Protocol: as §1

hNotch 2 (EGF6-EGF13) [6] = target: T1, hNotch 2 (EGF6-EGF13); test: SPR
Protocol: as §1

hNotch 3 (EGF5-EGF12) [7] = target: T2, hNotch 3 (EGF5-EGF12); test: SPR
Protocol: as §1

| Kd [1] [µM] | Kd (hNotch 1 (EGF6-EGF13) [2]) [µM] | Kd (hNotch 2 (EGF6-EGF13) [3]) [µM] | Kd (hNotch 3 (EGF5-EGF12) [4]) [µM] | binding affinity relative to wildtype (hNotch 1 (EGF6-EGF13) [5]) [fold] | binding affinity relative to wildtype (hNotch 2 (EGF6-EGF13) [6]) [fold] | binding affinity relative to wildtype (hNotch 3 (EGF5-EGF12) [7]) [fold] | Molecule |
| --- | --- | --- | --- | --- | --- | --- | --- |
| 12.7 |  |  |  |  |  |  | wild type rat DLL4 (from UniProt D3ZHH1 27-401) (ligand) |
|  | 17.9 | 35.7 | 22 |  |  |  | WT hDLL4 (N-EGF3) (ligand, also called WT DLL4; wildtype) SGVFQLQLQEFINERGVLASGRPCEPGCRTFFRVCLKHFQAVVSPGPCTFGTVSTPVLGTNSFAVRDDSSGGGRNPLQLPFNFTWPGTFSLIIEAWHAPGDDLRPEALPPDALISKIAIQGSLAVGQNWLLDEQTSTLTRLRYSYRVICSDNYYGDNCSRLCKKRNDHFGHYVCQPDGNLSCLPGWTGEYCQQPICLSGCHEQNGYCSKPAECLCRPGWQGRLCNECIPHNGCRHGTCSTPWQCTCDEGWGGLFCDQDLNYCTHHSPCKNGATCSNSGQRSYTCTCRPGYTGVDCE |
|  | 0.02 | 0.0314 | 0.0273 | ~1000 | ≥ 1000 | ~1000 | 3a.5_E12 (N-EGF3) (ligand, also called DLL4.v3; N3a.5_E12) SSVFQLQLQEFINERGVLASGRPCEPGCRTFFRVCLKHFQAVVSPGPCTFGTVSTPVLGTNSFAVRDDSSGGGRNPLQLPLNFTWPGTFSLIIEAWHAPGDDLRPEALPPDALISKFAIQGSLAVGQNWLLDEQTSTLTRLRYSYRVICSDNYYGDNCSRLCKKRNDYFGHYVCQPDGNPSCLPGWTGEYCQQPICLSGCHEQNGYCSKPAECLCRPGWQGRLCNECIPHPGCRHGTCSTPWQCLCDEGWGGLYCDQDLNYCTHHSPCKNGATCRNSGPRSYTCTCRPGYTGVDCE |
